Positions of bridges follow the written chain, without caps; N, C: chain ends. No end group written: not given here. *: point of attachment. 125I = [125I]*
Assays:
Assay in all cases: 125I-OxA binding on CHO-S cells expressing the OX1R mutant
[1] = target: T1, OX1R V121A (human, UniProt O43613 1-425)
T1 construct: site-directed mutant (TM3) stably expressed in CHO-S cells; not shown: YFP from vector pEYFP-N2 fused at the C-terminus
T1 chain: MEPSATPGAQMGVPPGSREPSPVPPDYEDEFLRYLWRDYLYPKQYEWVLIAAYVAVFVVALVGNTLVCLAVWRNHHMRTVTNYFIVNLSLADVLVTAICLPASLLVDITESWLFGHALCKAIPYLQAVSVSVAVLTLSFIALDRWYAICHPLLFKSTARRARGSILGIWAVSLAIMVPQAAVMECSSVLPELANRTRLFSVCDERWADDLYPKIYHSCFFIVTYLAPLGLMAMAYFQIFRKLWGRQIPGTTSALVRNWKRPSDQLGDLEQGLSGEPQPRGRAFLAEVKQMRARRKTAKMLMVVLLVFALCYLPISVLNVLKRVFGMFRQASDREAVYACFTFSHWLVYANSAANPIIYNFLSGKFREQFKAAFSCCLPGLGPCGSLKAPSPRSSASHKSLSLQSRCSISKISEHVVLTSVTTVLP
Protocol: (§1) CHO—S cells expressing recombinant native or mutated OX1R were grown as previously described (El Firar et al., 2009) and maintained at 37° C. in a humidified 5% CO₂/air incubator. ¹²⁵I-orexia-A (74 TBq/mmol) was prepared as previously described (El Firar et al., 2009). […] Free peptides were removed by 2 cell washing cycles with PBS. […] Data were analyzed using the GraphPad software (http://www.graphpad.com).
(§2) All residues of OX1R fulfilling this condition were mutated to alanine by site-directed mutagenesis (Table II).

[2] = target: T2, OX1R Y211A (human, UniProt O43613 1-425)
T2 construct: site-directed mutant (TM5) stably expressed in CHO-S cells; not shown: YFP from vector pEYFP-N2 fused at the C-terminus
T2 chain: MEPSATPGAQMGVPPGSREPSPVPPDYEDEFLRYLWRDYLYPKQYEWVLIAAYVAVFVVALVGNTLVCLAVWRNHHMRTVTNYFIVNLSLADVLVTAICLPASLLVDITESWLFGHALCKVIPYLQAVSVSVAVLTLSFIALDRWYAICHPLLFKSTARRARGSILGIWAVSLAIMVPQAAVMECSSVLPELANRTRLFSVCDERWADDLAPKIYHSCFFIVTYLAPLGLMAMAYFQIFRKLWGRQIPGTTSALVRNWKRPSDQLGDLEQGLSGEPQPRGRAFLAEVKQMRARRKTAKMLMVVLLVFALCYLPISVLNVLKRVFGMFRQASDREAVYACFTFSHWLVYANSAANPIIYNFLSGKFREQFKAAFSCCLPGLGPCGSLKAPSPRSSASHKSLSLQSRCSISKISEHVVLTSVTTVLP
Protocol: as §1, §2

[3] = target: T3, OX1R N318A (human, UniProt O43613 1-425)
T3 construct: site-directed mutant (TM6) stably expressed in CHO-S cells; not shown: YFP from vector pEYFP-N2 fused at the C-terminus
T3 chain: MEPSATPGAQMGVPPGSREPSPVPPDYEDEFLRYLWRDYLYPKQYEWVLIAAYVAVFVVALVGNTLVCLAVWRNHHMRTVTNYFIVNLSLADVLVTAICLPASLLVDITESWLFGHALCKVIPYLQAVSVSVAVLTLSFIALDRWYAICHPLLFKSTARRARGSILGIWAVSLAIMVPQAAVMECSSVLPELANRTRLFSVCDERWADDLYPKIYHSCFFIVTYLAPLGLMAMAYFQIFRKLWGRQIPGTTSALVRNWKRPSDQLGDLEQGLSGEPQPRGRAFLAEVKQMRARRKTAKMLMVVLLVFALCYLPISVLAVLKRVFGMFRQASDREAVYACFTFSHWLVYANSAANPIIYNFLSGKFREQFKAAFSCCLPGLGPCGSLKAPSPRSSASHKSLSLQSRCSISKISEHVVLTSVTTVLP
Protocol: as §1, §2

[4] = target: T4, OX1R V319A (human, UniProt O43613 1-425)
T4 construct: site-directed mutant (TM6) stably expressed in CHO-S cells; not shown: YFP from vector pEYFP-N2 fused at the C-terminus
T4 chain: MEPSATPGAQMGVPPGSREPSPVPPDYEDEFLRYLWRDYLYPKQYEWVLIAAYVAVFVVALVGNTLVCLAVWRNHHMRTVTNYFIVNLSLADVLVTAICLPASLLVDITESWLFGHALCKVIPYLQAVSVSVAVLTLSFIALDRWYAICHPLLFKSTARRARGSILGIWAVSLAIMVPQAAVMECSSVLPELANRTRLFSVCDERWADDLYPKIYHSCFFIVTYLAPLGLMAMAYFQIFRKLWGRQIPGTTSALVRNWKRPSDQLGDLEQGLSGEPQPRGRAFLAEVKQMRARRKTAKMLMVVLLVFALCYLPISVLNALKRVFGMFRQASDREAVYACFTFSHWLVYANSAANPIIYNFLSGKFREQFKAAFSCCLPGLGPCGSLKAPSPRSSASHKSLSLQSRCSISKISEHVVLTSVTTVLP
Protocol: as §1, §2

[5] = target: T5, OX1R L320A (human, UniProt O43613 1-425)
T5 construct: site-directed mutant (TM6) stably expressed in CHO-S cells; not shown: YFP from vector pEYFP-N2 fused at the C-terminus
T5 chain: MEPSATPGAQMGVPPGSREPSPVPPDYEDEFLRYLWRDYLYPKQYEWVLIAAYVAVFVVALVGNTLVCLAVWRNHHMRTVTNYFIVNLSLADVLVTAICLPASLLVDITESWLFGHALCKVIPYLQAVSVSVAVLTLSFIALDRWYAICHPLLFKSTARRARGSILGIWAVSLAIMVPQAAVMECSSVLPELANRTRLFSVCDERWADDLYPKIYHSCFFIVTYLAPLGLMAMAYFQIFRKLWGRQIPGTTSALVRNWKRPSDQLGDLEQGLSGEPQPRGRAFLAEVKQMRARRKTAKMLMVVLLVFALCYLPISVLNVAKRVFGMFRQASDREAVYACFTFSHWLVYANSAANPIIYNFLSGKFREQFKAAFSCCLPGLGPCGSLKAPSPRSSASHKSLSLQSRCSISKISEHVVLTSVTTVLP
Protocol: as §1, §2

binding result [1]: binds
binding result [2]: binds
binding result [3]: binds
binding result [4]: binds
binding result [5]: binds
B1: 125I-orexin-A (peptide, UniProt O43612 34-66, looked up)
peptide: QPLPDCCRQKTCSCRLY(125I)ELLHGAGNHAAGILTL
modifications: disulfide 6-12, 7-14; not fully specified (residue 1, C-terminus)
notes: mature; also called OxA
